The source of these data is the supplement of paper PMC9170038.

The test system of data set [1] is MS2 coat protein. Description: apparent KD of MS2 coat protein; designed switch direction (-1 OFF switch, 1 ON switch): 1; higher = weaker reporter binding. The following applies: Eterna round: R98. As to the method: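 RNA-MaP: designed FMN/MS2 RNA switches (84 nt design region) are transcribed on-chip within common flanks and titrated with SNAP-549-labelled MS2 coat protein (about 1-3000 nM) in 100 mM Tris pH 7.5, 80 mM KCl, 4 mM MgCl2, without or with 200 uM FMN. Median apparent KD per design; activation ratio = KD,OFF / KD,ON.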

The test system of data set [2] is MS2 coat protein. Description: apparent KD of MS2 coat protein, switch OFF state (with FMN for OFF switches, without FMN for ON switches); designed switch direction (-1 OFF switch, 1 ON switch): 1; higher = weaker reporter binding. The following applies: FMN input: 0 or 200 uM; Eterna round: R93 (includes R88 designs). The essentials: (§1)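 Designed RNA switches were made by on-chip transcription from Illumina sequencing clusters and then titrated with SNAP-549-labelled MS2 coat protein. Twofold steps ran from 0.7 or 1.5 nM to 3 µM, each lasting 0.8–1.5 h early and 10–20 min late, in 100 mM Tris-HCl pH 7.5, 80 mM KCl, 4 mM MgCl2, without or with constant ligand. Apparent KD is the per-design median of normalised cluster binding-curve fits.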

Data set [3] concerns MS2 coat protein. The data set is described as follows: apparent KD of MS2 coat protein, switch ON state; designed switch direction (-1 OFF switch, 1 ON switch): 1; higher = weaker reporter binding. The following applies: FMN input: 0 or 200 uM; Eterna round: R93 (includes R88 designs). The essentials:
as §1

Take “GACCGUCCCACAGGAUAUAGAAGGGCGUCCGUUCUAGAAGGGUGAUCAGGACCAAAAGGUCACAUGAGGAUCACCCAUGUAGGU [Usorti]”: the “apparent KD of MS2 coat protein” value stood at 43.7 nM in the data set on MS2 coat protein [1] (input ligand: FMN 200 uM) and 36.6 nM in the data set with MS2 coat protein [1] (input ligand: none).
The matching figures for “GCCAUCGCAUGAGGAUAUGGCACCGUUUCGGUGCCAGAAGGCAUGUCAUAAGACAUGAGGAUCACCCAUGUAAAUAAGAUGGCA [JanderMod 3 - Jieux - Same State NG 1]”: 47.9 nM and 715 nM.
Regarding “GCUGCUAUCGCAGGAUAUUACAUGGGAAAUAAAACAUGAGGAUCACCCAUGUUAAAUAUCGUAAAUAAGAAGGGCGAUAGCAGC [Lame State 2 - Jieux - Same State NG 2]”, the results for the “apparent KD of MS2 coat protein” value with MS2 coat protein [1] (input ligand: FMN 200 uM) and with MS2 coat protein [1] (input ligand: none) were 178 nM and 1120 nM, respectively.
The matching figures for “GCUGUCGCAUGAGGAUAUGGUCUGCUUUGCAGACCAGAAGGCAUGUCGAUAGACAUGAGGAUCACCCAUGUAGUAAAGACAGCA [Mat - Same State NG 1 - JL Mod - D49]”: 57.1 nM and 306 nM.
With “GGACUCACUUGAGGAUAUCGAGUGGAAUACACUCGAGAAGGCAGGAAAACCUGAGGAUCACCCAGGUAAGAGUCCAAUAAUAAU [Same State NG1 - A3C, U17G Submission 3C]”, the figures for the “apparent KD of MS2 coat protein” value with MS2 coat protein [1] (input ligand: FMN 200 uM) and with MS2 coat protein [1] (input ligand: none) were 17.1 nM and 17.9 nM, respectively.
Take “GGCCGGCAGCUAGGAUAUGGGCGGUCACAUGAGGAUCACCCAUGUCAACAUCAAAACCAGAUUAACCAGAAGGAGCUGCGAGUU [Arza]”: the “apparent KD of MS2 coat protein” value came to 1230 nM with MS2 coat protein [1] (input ligand: FMN 200 uM) and 27.6 nM in the data set with MS2 coat protein [1] (input ligand: none).
On the same counts, the results for “GGUCCAACAUGAGGAUAUGGCACCUUAUUGGUGCCAGAAGGCGUGUCUAUAGACAUGAGGAUCACCCAUGUAAUAAAUUGGACC [SameState #22 NG1]” are 45.4 nM and 796 nM.
As for “UAAAAACAUGAGGAUCACCCAUGUAAGAUAAACACAGGAUAUGCGAAAAGAAAGAAAGAAGCAGAAGGGUGAAAAU [Mat - Same State 1 - Tesla mod - 43]”, the “apparent KD of MS2 coat protein” value worked out at 41.6 nM with MS2 coat protein [2] and 15.9 nM in the data set on MS2 coat protein [3].
Take “UAAAUACAUGAGGAUCACCCAUGUCAAGAGUAUUAAGGAUAUGAACCAGGGAACUGGCAGUCAGAAGGUGAGACUC [Ququeddi]”: the figures for the “apparent KD of MS2 coat protein” value with MS2 coat protein [2] and in the data set with MS2 coat protein [3] were 65.2 nM and 235 nM, respectively.
In the case of “UAACUACAUGAGGAUCACCCAUGUCUCCAGGGUCAAGGAUAUGGGCGUAGACAAACUACACCAGAAGGUGAUCCAA [Rireenon]”, the “apparent KD of MS2 coat protein” value worked out at 307 nM with MS2 coat protein [2] and 156 nM in the data set with MS2 coat protein [3].
In the case of “UACACGCGGGCGCAGGAUAUGUCGCUGGUGACAUGAGGAUCACCCAUGUAUACCAUUGCGGUUGAGCAGAAGGGUGAGACGCGUG [Matimare]”, the “apparent KD of MS2 coat protein” value came out at 57.5 nM with MS2 coat protein [2] and 15.1 nM with MS2 coat protein [3].
In the case of “UAUAUAUAAUAUAUUAACAUGAGGAUCACCCAUGUCGCUAGACAGGAUAUAUUUAAUAUUAUUAAGUAGAAGGGUCAUAUAAUU [LRO007_SS NG 3]”, the “apparent KD of MS2 coat protein” value with MS2 coat protein [1] (input ligand: FMN 200 uM) came to 77.4 nM; with MS2 coat protein [1] (input ligand: none) it was 78.6 nM.
In the case of “UAUUAUUACACGAAGGAUAUCGAUAAUAGUACAUGAGGAUCACCCAUGUUCAUAUCAUUUUAGUUCGAGAAGGUCGAGGGUGAAG [JR_SS002_Sub709]”, the figures for the “apparent KD of MS2 coat protein” value in the data set on MS2 coat protein [2] and with MS2 coat protein [3] were 20.1 nM and 23.9 nM, respectively.
As for “UCGUGUUUAACAGGAUAUCCUCAACGACACAUGAGGAUCACCCAUGUUCGGAGCCAAAUGGCUUAGGAGAAGGGUUAGAAACAA [Isceenvere]”, the “apparent KD of MS2 coat protein” value with MS2 coat protein [1] (input ligand: FMN 200 uM) turned out to be 75.8 nM; in the data set on MS2 coat protein [1] (input ligand: none), 701 nM.
With “UUAAGCCACGGGCAGGAUAUGUAUUAAAAUACAUGAGGAUCACCCAUGUGCAGGUGUAACACCUGACAGAAGGGCCAAUCGCGGC [Soondi]”, the “apparent KD of MS2 coat protein” value is 241 nM with MS2 coat protein [2] and 21.5 nM in the data set with MS2 coat protein [3].
Consider “UUUGGGAGCACAGGAUAUGGCGCCUCGGAGGCGCCAGAAGGGUGAUUCUGUUGGUGGCCACAUGAGGAUCACCCAUGUGCCUCC [Rienorarve]”, for which the “apparent KD of MS2 coat protein” value was found to be 19.2 nM in the data set with MS2 coat protein [1] (input ligand: FMN 200 uM) and 15.9 nM in the data set on MS2 coat protein [1] (input ligand: none).
